Test results taken from paper PMC13612217.

Molecular target: S-chain of the optimized human DROP-CAR containing dmLD3 (human)

R-domain of the anti-PSMA DROP-CAR (J591 scFv fused to Bcl-2)
percent of anti-PSMA DROP-CAR Jurkat cells still bound to a PC3-PIP monolayer at 1,000 pN (z-Movi acoustic force ramp), with venetoclax, partially detached cells counted as bound: 30%
percent of anti-PSMA DROP-CAR Jurkat cells still bound to a PC3-PIP monolayer at 1,000 pN (z-Movi acoustic force ramp), with venetoclax, partially detached cells counted as dissociated: < 10%
percent of anti-PSMA DROP-CAR Jurkat cells still bound to a PC3-PIP monolayer at 1,000 pN (z-Movi acoustic force ramp), without venetoclax, partially detached cells counted as bound: 64%
percent of anti-PSMA DROP-CAR Jurkat cells still bound to a PC3-PIP monolayer at 1,000 pN (z-Movi acoustic force ramp), without venetoclax, partially detached cells counted as dissociated: 30%
